According to the RNAGym collection of RNA variant scans (doi:10.7554/elife.90254):

B1: OR4K15 (parent)
chain: GUUAACGGUCAUAGGCCAUGGAAACUAGGAGCACCAUUUCGCUGCCAGUGAAGAAAUGAACAAAGAAAAUCUGGGCCAGGCAGGCAUCAAAAGAAAUAGUCUUGCGCUCAACCAGAAAGUCUGUAAUCAUUUUAAGGGUA

Variants of: B1
Assay: self-cleavage, relative activity (ratio to wild type); higher = more cleavage; in vitro, sequencing; the parent is a self-cleaving ribozyme

Variant | self-cleavage
GUUAACGGUCAUAGGCCAUGGAAACUAGGAGCACCAUUUCGCUGCCAGUGAAGAAAUGAACUAAGAAAAUCUGGGCCAGGCAGGCAUCAAAAGAAAUAGUCUUGCGCUCAACCAGAAAGCCUGUAAUCAUUUUAAGGGUA | 1
GUUAACGGUCAUAGGCCAUGGAAACUAGGAGCACCAUUUCGCUGCCAGUGAAGAAAUGAACUAAGAAAAUCUGGGCCAGGCAGGCAUCAAAAGAAAUAGUCUUGCGCUCAACCAGAAAGACUGUAAUCAUUUUAAGGGUA | 2.24
GUUAACGGUCAUAGGCCAUGGAAACUAGGAGCACCAUUUCGCUGCCAGUGAAGAAAUGAACUAAGAAAAUCUGGGCCAGGCAGGCAUCAAAAGAAAUAGCCUUGCGCUCAACCAGAAAGUCUGUAAUCAUUUUAAGGGUA | 2.34
GUUAACGGUCAUAGGCCAUGGAAACUAGGAGCACCAUUUCGCUGCCAGUGAAGAAAUGAACUAAGAAAAUCUGGGCCAGGCAGGCAUCAAAAGAAAUAGUCUUGCGCUCAACCAGAAAGUCUGUAAUCAUUUUAAGGGCA | 1.82
GUUAACGGUCAUAGGCCAUGGAAACUAGGAGCACCAUUUCGCUGCCAGUGAAGAAAUGAACUAAGAAAAUCUGGGCCAGGCAGGCAUCAAAAGAAAUAGUCUUGCGCUCAACCAGAAAGUCUGUAAUCAUUUUAAGGGAA | 1.78
GUUAACGGUCAUAGGCCAUGGAAACUAGGAGCACCAUUUCGCUGCCAGUGAAGAAAUGAACACAGAAAAUCUGGGCCAGGCAGGCAUCAAAAGAAAUAGUCUUGCGCUCAACCAGAAAGUCUGUAAUCAUUUUAAGGGUA | 1.81
GUUAACGGUCAUAGGCCAUGGAAACUAGGAGCACCAUUUCGCUGCCAGUGAAGAAAUGAACACAGAAAAUCUGGGCCAGGCAGGCAUCAAAAGAAAUAGUCUUGCGCUCAACCAGAAAGUCUGUAUUCAUUUUAAGGGUA | 1.62
GUUAACGGUCAUAGGCCAUGGAAACUAGGAGCACCAUUUCGCUGCCAGUGAAGAAAUGAACACAGAAAAUCUGGGCCAGGCAGGCAUCAAAAGAAAUAGUCUUGCGCUCAACCAGAAAGUCUGUAGUCAUUUUAAGGGUA | 0.99
GUUAACGGUCAUAGGCCAUGGAAACUAGGAGCACCAUUUCGCUGCCAGUGAAGAAAUGAACUAAGAAAAUCUGGGCCAGGCAGGCAUCAAAAGAAACAGUCUUGCGCUCAACCAGAAAGUCUGUAAUCAUUUUAAGGGUA | 0.96
GUUAACGGUCAUAGGCCAUGGAAACUAGGAGCACCAUUUCGCUGCCAGUGAAGAAAUGAACACAGAAAAUCUGGGCCAGGCAGGCAUCAAAAGAAAUAGUCUUGCGCUCAACCAGAAAGUCUGUAAUCAUUUUAAGGGUG | 1.96
GUUAACGGUCAUAGGCCAUGGAAACUAGGAGCACCAUUUCGCUGCCAGUGAAGAAAUGAACUAAGAAAAUCUGGGCCAGGCAGCCAUCAAAAGAAAUAGUCUUGCGCUCAACCAGAAAGUCUGUAAUCAUUUUAAGGGUA | 0.25
GUUAACGGUCAUAGGCCAUGGAAACUAGGAGCACCAUUUCGCUGCCAGUGAAGAAAUGAACUAAGAAAAUCUGGGCCAGGCAGGCAUCAAAAGAAAUAGUCUUGCGCUCAACCAGAAAGUCUGUAAUCAUUUUAAAGGUA | 1.59
GUUAACGGUCAUAGGCCAUGGAAACUAGGAGCACCAUUUCGCUGCCAGUGAAGAAAUGAACUAAGAAAAUCUGGGCCAGGCAGGCAUCAAAAGAAAUAGUCUCGCGCUCAACCAGAAAGUCUGUAAUCAUUUUAAGGGUA | 1.23
GUUAACGGUCAUAGGCCAUGGAAACUAGGAGCACCAUUUCGCUGCCAGUGAAGAAAUGAACUAAGAAAAUCUGGGCCAGGCAGGCAUCAAAAGAAAUAGUCUGGCGCUCAACCAGAAAGUCUGUAAUCAUUUUAAGGGUA | 0.07
GUUAACGGUCAUAGGCCAUGGAAACUAGGAGCACCAUUUCGCUGCCAGUGAAGAAAUGAACUAAGAAAAUCUGAGCCAGGCAGGCAUCAAAAGAAAUAGUCUUGCGCUCAACCAGAAAGUCUGUAAUCAUUUUAAGGGUA | 0.41
GUUAACGGUCAUAGGCCAUGGAAACUAGGAGCACCAUUUCGCUGCCAGUGAAGAAAUGAACUAAGAAAAUCUGGGCCAGGCAGGCAUCAAAAGAAAUAGUCUUACGCUCAACCAGAAAGUCUGUAAUCAUUUUAAGGGUA | 0.04
GUUAACGGUCAUAGGCCAUGGAAACUAGGAGCACCAUUUCGCUGCCAGUGAAGAAAUGAACUAAGAAAAUCUGGGCCAGGCAGGCAUCAAAAGAAAUAAUCUUGCGCUCAACCAGAAAGUCUGUAAUCAUUUUAAGGGUA | 0.62
GUUAACGGUCAUAGGCCAUGGAAACUAGGAGCACCAUUUCGCUGCCAGUGAAGAAAUGAACUAAGAAAAUCUGGGCCAGGCAGGCAUCAAAAGAAAUAGUCUUGCGCUCAACCAGAAAGUCUGUAAUCAUUCUAAGGGUA | 1.48
GUUAACGGUCAUAGGCCAUGGAAACUAGGAGCACCAUUUCGCUGCCAGUGAAGAAAUGAACUAAGAAAAUCUGGGCCAGGCAGGCAUCAAAAGAAAUAGUCUUGCGCUCAACCAGAAAGUCUGUAAUCAUCUUAAGGGUA | 1.2
GUUAACGGUCAUAGGCCAUGGAAACUAGGAGCACCAUUUCGCUGCCAGUGAAGAAAUGAACUAAGAAAAUCUGGGCCAGGCAGGCAUCAAAAGAAAUAGUCUUGCGCACAACCAGAAAGUCUGUAAUCAUUUUAAGGGUA | 0.02
GUUAACGGUCAUAGGCCAUGGAAACUAGGAGCACCAUUUCGCUGCCAGUGAAGAAAUGAACUAAGAAAAUCUGGGCCAGGCAGGCAUCAAAAGAAAUAGUCAUGCGCUCAACCAGAAAGUCUGUAAUCAUUUUAAGGGUA | 0.57
